In the assay the target is IAEDANS labeled sarcoplasmic reticulum Ca-ATPase (SERCA) (rabbit (purified from rabbit skeletal muscle)) (UniProt P04191). Briefly: FRET or BRET.

For the substance “Dabcyl labeled monomeric AFA-PLB mutant (C36A/C41F/C46A) of phospholamban (peptide)”, the Xb (fraction of SERCA bound to PLB) (mole fraction) was 0.82.
